Laboratory results: patent publication US11702469B2, “Recombinant EGFL7, EGFL7 antibodies, and uses thereof” (Ohio State Innovation Foundation, priority 2017, dated 2023)

Assays:
NICD = NICD immunoblot in primary AML blasts; type: cell-based, human; conditions: 100 μg/ml, 2 hrs, n=3, vs IgG
Protocol: FIG. 23A-23E. EGFL7 suppresses NOTCH signaling in human AML patient blasts. (FIG. 23A) Primary blasts from AML patients (n=3) were cultured in SFEM medium with 2% BSA in the presence or absence (Unstim) of 0.25 μM rEGFL7 for 4 h. Total proteins were extracted for immunoblotting of NICD (cleaved NOTCH1) with GAPDH as loading control. (FIG. 23B) Total RNA was extracted for quantitative real time (qRT-PCR) analysis of HES1 mRNA with β-ACTIN as internal control. *p<0.05 vs un-stimulated control (Unstim). (FIG. 23C) qRT-PCR for NOTCH2 mRNA at 4 h and 24 h after stimulation of primary AML blasts with 0.25 uM rEGFL7 or unstim controls. (FIG. 23D) Primary blasts from AML patients (n=3) were cultured in SFEM medium in the absence or presence of 100 μg/ml of normal IgG or anti-human EGFL7 antibody for 2 h. Total protein was extracted for immunoblotting of NICD with GAPDH as loading control. […] Total RNA was extracted for quantitative real time RT-PCR analysis of HES1 mRNA with β-ACTIN as internal control. *p<0.05, ***p<0.001 vs IgG.
Cells were lysed in 100 μl of Pierce RIPA buffer (Cat. #8990, Thermo Scientific) supplemented with protease and phosphatase inhibitors (Roche) on ice for 20 min. […] Immunoreactive bands were detected using ECL Select Western Blotting Detection Reagent (GE Healthcare). […]

[1] = system: wild type (C57Bl/6J) mice; assay: Toxicity on normal hematopoiesis in wild type mice; type: in vivo; conditions: 50 mpk twice a week for two weeks
Protocol: FIG. 20A-20B. WT mice were treated with 50 mpk twice weekly of Parsatuzumab (@EGFL7) or IgG1 control. FIG. 20A. CBCs from mice harvested after treatment. FIG. 20B. Percent engraftment of treated BM (CD45.2+) transplanted into BoyJ recipient mice (CD45.1).
To assess the toxicity of Parsatuzumab on normal hematopoiesis, wild type (C57Bl/6J) mice were treated with Parsatuzumab (n=4) and IgG1 control (n=4) with the highest dose previously tested at 50 mpk twice a week for two weeks. Parsatuzumab targets both human and mouse EGFL7 protein. After two weeks of treatment, blood, spleen and BM were harvested and full phenotypic characterization was performed to assess toxicity. […] Full immunophenotypic examination of BM populations was also performed (data not shown due to space constraints). […] To functionally test the effect of Parsatuzumab on normal HSPCs, competitive repopulation BM transplantation (BMT) assays and CFU assays were performed. For competitive BMT, 2×10^6 WBM was harvested from Parsatuzumab and IgG1 treated mice (CD45.2) with 2×10^6 BoyJ (CD45.1) WBM and transplanted into lethally irradiated BoyJ recipients.

HES-1 = HES-1 / HES1 RT-PCR in primary AML blasts; type: cell-based, human
Protocol: FIG. 15A-15D. EGFL7 binds and antagonizes NOTCH2 signaling. FIG. 15A. Co-IPs in Kasumi-1 cells using anti-EGFL7 antibody or normal rabbit IgG in Protein G Plus/Protein A agarose beads. Eluate was analyzed by immunoblotting for NOTCH1,-3, and EGFL7. FIG. 15B. Co-IPs with rabbit anti NOTCH1-3 antibody or normal rabbit IgG in Protein G Plus/Protein A agarose beads. FIG. 15C. Immunoblot for cleaved and total NOTCH2 in primary AML blasts stimulated in 0.25 μM rEGFL7. FIG. 15D. RT-PCR on primary AML blasts stimulated with 0.25 μM rEGFL7, *P<0.05.
FIG. 18A-18B. Parsatuzumab decreases blast growth and activation of NOTCH downstream signaling. FIG. 18A. […]
FIG. 23A-23E. […] (FIG. 23B) Total RNA was extracted for quantitative real time (qRT-PCR) analysis of HES1 mRNA with β-ACTIN as internal control. *p<0.05 vs un-stimulated control (Unstim). […] Total RNA was extracted for quantitative real time RT-PCR analysis of HES1 mRNA with β-ACTIN as internal control. *p<0.05, ***p<0.001 vs IgG.
Total RNA was extracted using Trizol reagent (Invitrogen, Carlsbad, Calif., USA). cDNA was synthesized using SuperScript III reagents (Invitrogen) according to the manufacturer's instruction. Quantitative Real-Time RT-PCR was performed using commercially available TaqMan Gene Expression Assay primers and the 7900HT Fast Real-Time PCR System (Applied Biosystems, Foster City, Calif., USA). […]

B1: Parsatuzumab: Anti-human EGFL7 therapeutic antibody (Parsatuzumab) obtained from Creative Biolabs; blocking monoclonal antibody (antibody, chains of the INN, looked up, V domains shown)
VH: EVQLVESGGGLVQPGGSLRLSCAASGYTFIDYYMNWVRQAPGKGLEWVGDINLDNSGTHYNQKFKGRFTISRDKSKNTAYLQMNSLRAEDTAVYYCAREGVYHDYDDYAMDYWGQGTLVTVSS
VL: DIQMTQSPSSLSASVGDRVTITCRTSQSLVHINAITYLHWYQQKPGKAPKLLIYRVSNRFSGVPSRFSGSGSGTDFTLTISSLQPEDFATYYCGQSTHVPLTFGQGTKVEIK
NICD
  NICD levels: significant increases in NICD levels
[1]; vs IgG1
  number of CFUs and types of colonies from treated BM: no significant changes in the number of CFUs or types of colonies formed
[1]; vs IgG1 control
  full differential complete blood counts (CBCs): No significant changes
  immunophenotypic examination of BM populations: no significant changes in any hematopoietic stem and/or progenitor populations
HES-1; 100 μg/ml, 2 and 10 hrs post treatment, vs IgG
  expression of HES1: concomitant increases
HES-1; 4 and 24 hours after addition, vs IGg1 controls
  HES-1 mRNA expression: significant increases in HES-1 expression
